Here are results for six molecules from patent US20220073581A1 (UCB, published 2022).

The target in assay [1] is T1, GM-CSF receptor, cognate for the human GM-CSF constructs (GM-CSF-Ra, R&D Systems) (UniProt P15509 23-320).
T1 construct: also called cognate GM-CSF receptor
T1 sequence (looked up): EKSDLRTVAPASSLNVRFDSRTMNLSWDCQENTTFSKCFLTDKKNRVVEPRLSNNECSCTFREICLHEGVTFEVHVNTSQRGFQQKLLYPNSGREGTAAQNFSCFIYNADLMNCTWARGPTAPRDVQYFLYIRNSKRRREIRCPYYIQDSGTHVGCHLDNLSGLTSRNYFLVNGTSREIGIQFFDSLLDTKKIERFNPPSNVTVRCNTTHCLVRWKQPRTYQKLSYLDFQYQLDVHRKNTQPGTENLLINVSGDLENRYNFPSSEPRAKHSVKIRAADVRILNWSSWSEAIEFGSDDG
The experiment in a line: SPR (Biacore), Fab captured on anti-human F(ab)2, GM-CSF receptor injected. On the technique in general: SPR reads the build-up and loss of mass on a sensor chip optically.

For assay [2], the target named is T2, IL-2-Rβ (IL-2 receptor β chain, R&D Systems) (UniProt P14784 27-239).
T2 construct: also called IL-2-sRβ
T2 sequence (looked up): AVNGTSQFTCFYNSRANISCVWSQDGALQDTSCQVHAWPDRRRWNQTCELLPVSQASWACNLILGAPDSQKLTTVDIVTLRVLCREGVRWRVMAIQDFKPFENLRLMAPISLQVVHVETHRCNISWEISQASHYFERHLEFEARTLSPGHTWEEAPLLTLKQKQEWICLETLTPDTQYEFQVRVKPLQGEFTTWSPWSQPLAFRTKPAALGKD
The assay can be described thus: SPR (Biacore), Fab captured on anti-human F(ab)2, IL-2-Rβ injected.

The target in assay [3] is T3, GM-CSF receptor, cognate for the murine GM-CSF constructs (UniProt Q00941 30-327).
T3 construct: also called GM-CSF-Ra; cognate GM-CSF receptor
T3 sequence (looked up): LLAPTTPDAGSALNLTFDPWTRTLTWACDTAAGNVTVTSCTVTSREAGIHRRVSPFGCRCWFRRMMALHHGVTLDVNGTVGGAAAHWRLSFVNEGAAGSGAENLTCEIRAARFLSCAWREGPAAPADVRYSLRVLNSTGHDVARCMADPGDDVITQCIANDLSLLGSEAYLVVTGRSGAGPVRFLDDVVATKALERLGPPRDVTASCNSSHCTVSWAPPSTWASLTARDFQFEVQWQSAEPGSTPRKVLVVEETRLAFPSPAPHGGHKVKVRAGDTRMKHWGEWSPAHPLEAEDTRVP
The assay can be described thus: SPR (Biacore), Fab captured on anti-human F(ab)2, GM-CSF receptor injected.

Assay [4] deals with T4, EPO-R (EPO receptor, R&D Systems) (UniProt P19235 25-250).
T4 sequence (looked up): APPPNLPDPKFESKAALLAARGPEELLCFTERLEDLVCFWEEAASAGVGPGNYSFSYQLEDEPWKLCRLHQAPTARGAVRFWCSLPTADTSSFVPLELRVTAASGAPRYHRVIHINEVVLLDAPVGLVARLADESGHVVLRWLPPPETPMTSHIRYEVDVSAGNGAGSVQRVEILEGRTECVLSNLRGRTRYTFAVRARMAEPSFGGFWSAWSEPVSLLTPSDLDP
The experiment in a line: SPR (Biacore), Fab captured on anti-human F(ab)2, EPO-R injected.

In assay [5] the target is T2, IL-2-Rβ (IL-2 receptor β chain, R&D …). The experiment in a line: SPR (Biacore), fusion captured on anti-human F(ab)2, 100 nM IL-2-sRβ injected, with or without premixed 200 nM IL-15.
Assay [6] deals with T5, Human serum albumin (HSA), Jackson ImmunoResearch catalog #009-000-051 (human, UniProt P02768 25-609). The experiment in a line: SPR (Biacore), fusion captured from supernatant on anti-human F(ab)2, 1000 nM HSA injected.
Assay [7] concerns the target T2, IL-2-Rβ (IL-2 receptor β chain, R&D …). The assay can be described thus: SPR (Biacore), fusion captured from supernatant on anti-human F(ab)2, 100 nM IL-2-Rβ injected.
For assay [8], the target named is T6, IL-15-Rα-hFc (R&D Systems) (UniProt Q13261 31-205).
T6 construct: Bought reagent; not shown: human Fc (hFc)
The assay can be described thus: SPR (Biacore), fusion captured from supernatant on anti-human F(ab)2, 100 nM IL-15-Rα injected.

The target of assay [9] is T5, Human serum albumin (HSA), Jackson …. The assay can be described thus: SPR (Biacore), fusion captured on anti-human F(ab)2, 1000 nM HSA injected alone or with 100 nM G-CSF-Rα.
The target of a further assay is IL-6 (R&D Systems) (UniProt P05231 30-212, limits assumed). The experiment in a line: SPR (Biacore), fusion captured on anti-human F(ab)2, IL-6 alone injected.
The target in assay [10] is T2, IL-2-Rβ (IL-2 receptor β chain, R&D …). The experiment in a line: SPR (Biacore), fusion captured on anti-human F(ab)2, 100 nM IL-2-sRβ injected, with or without premixed 200 nM IL-15. The source holds these as a separate data set.

B1: CA645 Fab (unmodified, wild type, anti-human serum albumin) (Fab, V domains shown)
VH: EVQLLESGGGLVQPGGSLRLSCAVSGIDLSNYAINWVRQAPGKGLEWIGIIWASGTTFYATWAKGRFTISRDNSKNTVYLQMNSLRAEDTAVYYCARTVPGYSTAPYFDLWGQGTLVTVSS
VL: DIQMTQSPSSVSASVGDRVTITCQSSPSVWSNFLSWYQQKPGKAPKLLIYEASKLTSGVPSRFSGSGSGTDFTLTISSLQPEDFATYYCGGGYSSISDTTFGGGTKVEIKR
notes: Control without insert polypeptide; also called unmodified CA645 Fab; wild type CA645 Fab
As for B1, the binding result is given as “no binding (tested: 100 nM)” in assay [1], “no binding (tested: 100 nM)” in assay [2], “no binding (tested: 100 nM)” in assay [3] and “no binding (tested: 50 nM)” in assay [4].

B2: CA240/IL-15Fwk3 (anti-IL-6 CA240 Fab with human IL-15 inserted into framework 3 of the VH domain) (Fab)
heavy: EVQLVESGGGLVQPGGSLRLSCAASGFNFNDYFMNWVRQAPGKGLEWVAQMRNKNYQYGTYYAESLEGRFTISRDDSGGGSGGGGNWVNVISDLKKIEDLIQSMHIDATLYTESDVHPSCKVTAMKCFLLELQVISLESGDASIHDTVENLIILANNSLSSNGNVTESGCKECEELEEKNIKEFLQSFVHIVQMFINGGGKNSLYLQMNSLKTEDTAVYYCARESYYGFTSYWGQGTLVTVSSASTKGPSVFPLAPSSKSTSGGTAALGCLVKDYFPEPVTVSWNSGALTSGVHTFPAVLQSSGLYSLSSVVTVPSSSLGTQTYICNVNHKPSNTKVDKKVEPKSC
light: DIQMTQSPSSLSASVGDRVTITCQASQDIGISLSWYQQKPGKAPKLLIYNANNLADGVPSRFSGSGSGTDFTLTISSLQPEDFATYYCLQHNSAPYTFGQGTKLEIKRTVAAPSVFIFPPSDEQLKSGTASVVCLLNNFYPREAKVQWKVDNALQSGNSQESVTEQDSKDSTYSLSSTLTLSKADYEKHKVYACEVTHQGLSSPVTKSFNRGEC
notes: also called CA240/IL-15 antibody fusion protein
On to B2, for which the binding result in [5] was “binds”.

B3: CA645/IL-15Fwk3 (CA645 Fab with human IL-15 inserted into framework 3 of the VH domain, original linkers) (Fab)
heavy: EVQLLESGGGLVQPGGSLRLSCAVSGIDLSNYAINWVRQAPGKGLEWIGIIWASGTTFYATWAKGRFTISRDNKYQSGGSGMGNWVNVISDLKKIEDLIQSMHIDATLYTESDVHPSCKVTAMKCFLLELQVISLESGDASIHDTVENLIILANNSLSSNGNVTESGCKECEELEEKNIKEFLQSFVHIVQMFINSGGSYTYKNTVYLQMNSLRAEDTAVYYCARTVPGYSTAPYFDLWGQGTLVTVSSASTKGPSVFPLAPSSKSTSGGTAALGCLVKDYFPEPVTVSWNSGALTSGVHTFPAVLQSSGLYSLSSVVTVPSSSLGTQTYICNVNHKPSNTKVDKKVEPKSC
light: DIQMTQSPSSVSASVGDRVTITCQSSPSVWSNFLSWYQQKPGKAPKLLIYEASKLTSGVPSRFSGSGSGTDFTLTISSLQPEDFATYYCGGGYSSISDTTFGGGTKVEIKRTVAAPSVFIFPPSDEQLKSGTASVVCLLNNFYPREAKVQWKVDNALQSGNSQESVTEQDSKDSTYSLSSTLTLSKADYEKHKVYACEVTHQGLSSPVTKSFNRGEC
notes: Tested as HEK293 supernatant diluted 1 in 5, captured on anti-human F(ab)2; also called CA645/IL-15 antibody fusion protein
As for B3, the binding result in [6], in assay [7] and in [8] was “binds” throughout.

B4: CA645/G-CSFFwk3 (CA645 Fab with human G-CSF inserted into framework 3 of the VH domain) (Fab)
heavy: EVQLLESGGGLVQPGGSLRLSCAVSGIDLSNYAINWVRQAPGKGLEWIGIIWASGTTFYATWAKGRFTISRDNSGGGGSATPLGPASSLPQSFLLKCLEQVRKIQGDGAALQEKLVSECATYKLCHPEELVLLGHSLGIPWAPLSSCPSQALQLAGCLSQLHSGLFLYQGLLQALEGISPELGPTLDTLQLDVADFATTIWQQMEELGMAPALQPTQGAMPAFASAFQRRAGGVLVASHLQSFLEVSYRVLRHLAQPSGGGGKNTVYLQMNSLRAEDTAVYYCARTVPGYSTAPYFDLWGQGTLVTVSSASTKGPSVFPLAPSSKSTSGGTAALGCLVKDYFPEPVTVSWNSGALTSGVHTFPAVLQSSGLYSLSSVVTVPSSSLGTQTYICNVNHKPSNTKVDKKVEPKSC
light: DIQMTQSPSSVSASVGDRVTITCQSSPSVWSNFLSWYQQKPGKAPKLLIYEASKLTSGVPSRFSGSGSGTDFTLTISSLQPEDFATYYCGGGYSSISDTTFGGGTKVEIKRTVAAPSVFIFPPSDEQLKSGTASVVCLLNNFYPREAKVQWKVDNALQSGNSQESVTEQDSKDSTYSLSSTLTLSKADYEKHKVYACEVTHQGLSSPVTKSFNRGEC
notes: also called CA645/G-CSF antibody fusion protein
In the case of B4, in assay [9], the binding result is reported as “binds”.

B5: CA645/VHH6Fwk3 (CA645 Fab with camelid VHH6 inserted into framework 3 of the VH domain) (bispecific antibody)
heavy: EVQLLESGGGLVQPGGSLRLSCAVSGIDLSNYAINWVRQAPGKGLEWIGIIWASGTTFYATWAKGRFTISRDNSGGGGSGGGGSDVQFVESGGGSVHAGGSLRLNCATSGYIYSTYCMGWFRQAPGKEREGVAHIYTNSGRTYYADSVKGRFTISQDNAKNTVYLQMNSLKPEDTAIYYCAARPSIRCASFSATEYKDWGQGTQVTVSSGGGGSGGGGSKNTVYLQMNSLRAEDTAVYYCARTVPGYSTAPYFDLWGQGTLVTVSSASTKGPSVFPLAPSSKSTSGGTAALGCLVKDYFPEPVTVSWNSGALTSGVHTFPAVLQSSGLYSLSSVVTVPSSSLGTQTYICNVNHKPSNTKVDKKVEPKSC
light: DIQMTQSPSSVSASVGDRVTITCQSSPSVWSNFLSWYQQKPGKAPKLLIYEASKLTSGVPSRFSGSGSGTDFTLTISSLQPEDFATYYCGGGYSSISDTTFGGGTKVEIKRTVAAPSVFIFPPSDEQLKSGTASVVCLLNNFYPREAKVQWKVDNALQSGNSQESVTEQDSKDSTYSLSSTLTLSKADYEKHKVYACEVTHQGLSSPVTKSFNRGEC
notes: also called CA645/VHH6 antibody fusion protein
On to B5, for which, in the assay with IL-6 (R&D Systems), the binding result is “no binding (tested: 100 nM)”.

B6: CA645/IL-2Fwk3 (CA645 Fab with human IL-2 inserted into framework 3 of the VH domain) (Fab)
heavy: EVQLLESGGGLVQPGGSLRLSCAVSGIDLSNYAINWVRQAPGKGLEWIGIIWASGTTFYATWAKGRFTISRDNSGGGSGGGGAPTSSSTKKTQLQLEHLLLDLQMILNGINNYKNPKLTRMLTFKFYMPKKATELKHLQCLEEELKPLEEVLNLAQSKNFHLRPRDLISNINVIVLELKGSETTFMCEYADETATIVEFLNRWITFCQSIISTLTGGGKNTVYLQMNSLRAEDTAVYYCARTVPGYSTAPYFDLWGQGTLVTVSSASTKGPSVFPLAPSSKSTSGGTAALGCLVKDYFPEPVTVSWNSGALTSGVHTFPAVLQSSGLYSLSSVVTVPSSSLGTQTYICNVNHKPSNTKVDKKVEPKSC
light: DIQMTQSPSSVSASVGDRVTITCQSSPSVWSNFLSWYQQKPGKAPKLLIYEASKLTSGVPSRFSGSGSGTDFTLTISSLQPEDFATYYCGGGYSSISDTTFGGGTKVEIKRTVAAPSVFIFPPSDEQLKSGTASVVCLLNNFYPREAKVQWKVDNALQSGNSQESVTEQDSKDSTYSLSSTLTLSKADYEKHKVYACEVTHQGLSSPVTKSFNRGEC
notes: also called CA645/IL-2 antibody fusion protein
As to B6, the binding result in assay [10] is recorded as “binds”.
